Assay results from publication PMC5993042.

Target: estrogen receptor α (as used in the TR-FRET assay) (UniProt P03372)
Test: FRET or BRET

estrogen receptor α (as used in the TR-FRET assay), sequence (P03372 311-547): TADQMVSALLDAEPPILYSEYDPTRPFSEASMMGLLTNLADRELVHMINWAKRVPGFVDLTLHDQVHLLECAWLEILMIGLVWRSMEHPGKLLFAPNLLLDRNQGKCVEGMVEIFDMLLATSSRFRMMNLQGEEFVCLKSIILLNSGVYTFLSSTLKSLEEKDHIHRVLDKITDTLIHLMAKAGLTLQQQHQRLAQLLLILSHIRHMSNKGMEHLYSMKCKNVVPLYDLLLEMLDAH

IC50: 1.1 µM
Substance: SRC2-WT (peptide)
